The target in experiment [1] is T1, FcgRIa (human, UniProt P12314).
T1 chain: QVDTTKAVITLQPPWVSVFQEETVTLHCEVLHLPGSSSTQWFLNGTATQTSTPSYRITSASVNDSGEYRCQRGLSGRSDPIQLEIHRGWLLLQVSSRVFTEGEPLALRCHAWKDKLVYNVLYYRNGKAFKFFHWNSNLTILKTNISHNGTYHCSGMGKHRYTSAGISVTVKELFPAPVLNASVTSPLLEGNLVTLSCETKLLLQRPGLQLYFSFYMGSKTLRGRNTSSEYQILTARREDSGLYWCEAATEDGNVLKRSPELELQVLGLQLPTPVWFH
As to the kind of experiment: SPR.

Experiment [2] deals with T2, FcgRIIb (human, UniProt P31994).
T2 chain: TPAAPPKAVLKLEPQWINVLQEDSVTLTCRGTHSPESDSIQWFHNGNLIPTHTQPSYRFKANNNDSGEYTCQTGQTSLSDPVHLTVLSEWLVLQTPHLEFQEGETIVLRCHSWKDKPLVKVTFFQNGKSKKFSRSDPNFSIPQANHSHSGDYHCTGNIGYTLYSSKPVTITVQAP
The experiment can be described thus: SPR.

Experiment [3] has as its target T3, FcgRIIaR (human, UniProt P12318).
T3 chain: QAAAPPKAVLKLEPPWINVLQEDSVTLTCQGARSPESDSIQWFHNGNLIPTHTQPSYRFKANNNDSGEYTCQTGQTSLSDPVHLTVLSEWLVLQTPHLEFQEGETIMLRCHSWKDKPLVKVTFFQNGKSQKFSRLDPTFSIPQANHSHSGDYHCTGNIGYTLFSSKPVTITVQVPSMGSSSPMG
The experiment can be described thus: SPR.

Experiment [4] has as its target T3, FcgRIIaR. The experiment can be described thus: SPR.
For experiment [5], the target named is T3, FcgRIIaR. The experiment can be described thus: SPR.
In experiment [6] the target is T1, FcgRIa. As to the kind of experiment: SPR.
The target in experiment [7] is T2, FcgRIIb. As to the kind of experiment: SPR.
The target in a further experiment is human FcRn (human, UniProt P55899). The experiment can be described thus: SPR, pH 6.0, 25C.
In experiment [8] the target is T2, FcgRIIb. The experiment can be described thus: SPR.
For the next experiment, the target named is T4, FcgRIIaH (human, UniProt P12318).
T4 chain: T3 chain with R134H
As to the kind of experiment: SPR.

The target of experiment [9] is T1, FcgRIa. As to the kind of experiment: SPR.
Experiment [10] concerns the target T2, FcgRIIb. The experiment can be described thus: SPR.
For experiment [11], the target named is T1, FcgRIa. The experiment can be described thus: SPR.
Experiment [12] deals with T5, FcgRIIIaV (human, UniProt P08637). As to the kind of experiment: SPR.
For experiment [13], the target named is T5, FcgRIIIaV. The experiment can be described thus: SPR. This is another data set of the same source.
Experiment [14] concerns the target T3, FcgRIIaR. As to the kind of experiment: SPR.

Residue numbers refer to the chain shown, from its start. Like-named read-outs stand apart in the source and are kept apart here.

These results are taken from patent US10919953 (dated 2021).

Chain of human FcRn (P55899 24-297, chain 1 of 2): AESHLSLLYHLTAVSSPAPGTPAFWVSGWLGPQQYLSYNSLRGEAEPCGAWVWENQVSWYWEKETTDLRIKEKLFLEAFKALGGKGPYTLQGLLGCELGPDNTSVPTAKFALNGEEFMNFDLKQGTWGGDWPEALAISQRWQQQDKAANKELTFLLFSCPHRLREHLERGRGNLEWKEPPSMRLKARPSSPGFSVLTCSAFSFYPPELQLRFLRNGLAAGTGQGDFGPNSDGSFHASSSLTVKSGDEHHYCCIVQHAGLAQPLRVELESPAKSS
Chain of human FcRn (chain, as listed by the source, chain 2 of 2): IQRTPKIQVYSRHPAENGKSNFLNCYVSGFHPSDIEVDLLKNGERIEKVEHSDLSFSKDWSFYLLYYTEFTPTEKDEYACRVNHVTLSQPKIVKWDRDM
T5 sequence (P08637 17-208 F176V): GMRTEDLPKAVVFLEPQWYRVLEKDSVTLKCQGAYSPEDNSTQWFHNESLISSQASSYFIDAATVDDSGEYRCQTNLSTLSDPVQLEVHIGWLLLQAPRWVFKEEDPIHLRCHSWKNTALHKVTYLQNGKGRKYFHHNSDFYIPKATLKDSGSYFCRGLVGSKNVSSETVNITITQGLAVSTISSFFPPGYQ

B1: IL6R-BP471/IL6R-L (antibody)
chain 1: QVQLQESGPGLVKPSETLSLTCAVSGHSISHDHAWSWVRQPPGEGLEWIGFISYSGITNYNPSLQGRVTISRDNSKNTLYLQMNSLRAEDTAVYYCARSLARTTAMDYWGEGTLVTVSSASTKGPSVFPLAPSSKSTSGGTAALGCLVKDYFPEPVTVSWNSGALTSGVHTFPAVLQSSGLYSLSSVVTVPSSSLGTQTYICNVNHKPSNTKVDKKVEPKSCDKTHTCPPCPAPDLLGDDSVFLFPPKPKDTLMISRTPEVTCVVVDVSDEDGEVKFNWYVDGVEVHNAKTKPREEQDNSTYRVVSVLTVLHQDWLNGKEYKCKVSNKALSRPIEKTISKAKGQPREPQVYTLPPSRDELTKNQVSLTCLVKGFYPSDIAVEWESNGQPENNYKTTPPVLDSDGSFFLYSKLTVDKSRWQQGNVFSCSVMHEALHNHYTQESLSLSP
chain 2: not shown
For B1, the equilibrium dissociation constant (Kd) with FcgRIa [1] is 7.3 nM; with FcgRIIb [2] it was 35 nM; with FcgRIIaR [3], 800 nM.

B2: IL6R-BP223/IL6R-L (antibody)
chain 1: B1 chain 1 with D235E, L236Y, D298Y, K328A, S331P
chain 2: not shown
Take B2: the dissociation constant (Kd) in the experiment with FcgRIIaR [4] was 600 nM.

B3: IL6R-BP230/IL6R-L (antibody)
chain 1: B1 chain 1 with S331P
chain 2: not shown
On to B3, for which the Kd worked out at 490 nM with FcgRIIaR [5], 10 nM with FcgRIa [6] and 18 nM with FcgRIIb [7].

B4: Fv4-P587 (antibody)
chain 1: B1 chain 1 with D239G, V266I, S269A, D270E, D298Y, S331P, R332A, E441K
chain 2: DIQMTQSPSSLSASVGDSVTITCQASTDISSHLNWYQQKPGKAPELLIYYGSHLLSGVPSRFSGSGSGTDFTFTISSLEAEDAATYYCGQGNRLPYTFGQGTKVEIERTVAAPSVFIFPPSDEQLKSGTASVVCLLNNFYPREAKVQWKVDNALQSGNSQESVTEQDSKDSTYSLSSTLTLSKADYEKHKVYACEVTHQGLSSPVTKSFNRGEC
Regarding B4, in the experiment with human FcRn, the Kd was found to be 1500 nM.

B5: IL6R-BP253/IL6R-L (antibody)
chain 1: B1 chain 1 with D235E, D239G, D240P, S269E, D270H, G273P, D298Y, L330F, S331P, R332A
chain 2: not shown
On to B5, for which the Kd with FcgRIIb [8] was 11 nM; with FcgRIIaH, 860 nM; with FcgRIa [9], 0.067 nM; with FcgRIIb [10], 8.9 nM; with FcgRIa [11] it was 0.05 nM; with FcgRIIIaV [12], 400 nM. Also, the Kd came to 3600 nM in the experiment with FcgRIIIaV [13] and 2.3 nM with FcgRIIaR [14].

B6: Fv4-P587-LS (antibody)
chain 1: B1 chain 1 with D239G, V266I, S269A, D270E, D298Y, S331P, R332A, M430L, N436S, E441K
chain 2: B4 chain 2
B6 displayed a Kd with human FcRn of 120 nM.

B7: Fv4-IgG1 (antibody)
chain 1: not shown
chain 2: B4 chain 2
Take B7: in the experiment with human FcRn, binding was characterised by a dissociation constant (Kd) of 1400 nM.

B8: IL6R-BP478/IL6R-L (antibody)
chain 1: QVQLQESGPGLVKPSETLSLTCAVSGHSISHDHAWSWVRQPPGEGLEWIGFISYSGITNYNPSLQGRVTISRDNSKNTLYLQMNSLRAEDTAVYYCARSLARTTAMDYWGEGTLVTVSSASTKGPSVFPLAPCSRSTSESTAALGCLVKDYFPEPVTVSWNSGALTSGVHTFPAVLQSSGLYSLSSVVTVPSSSLGTKTYTCNVDHKPSNTKVDKRVESKYGPPCPPCPAPDLLGDDSVFLFPPKPKDTLMISRTPEVTCVVVDVSDEDGEVKFNWYVDGVEVHNAKTKPREEQDNSTYRVVSVLTVLHQDWLNGKEYKCKVSNKALPRPIEKTISKAKGQPREPQVYTLPPSRDELTKNQVSLTCLVKGFYPSDIAVEWESNGQPENNYKTTPPVLDSDGSFFLYSKLTVDKSRWQQGNVFSCSVMHEALHNHYTQESLSLSP
chain 2: not shown
As to B8, the Kd with FcgRIa [1] was 7.7 nM; with FcgRIIb [2] it was 19 nM; with FcgRIIaR [3] it was 540 nM.
